This note sets out measurements from PMC9691602.

Assay [1] concerns the target AcrIF24 (P. aeruginosa prophage). Kind of assay: SEC-SAXS.
Assay [2] has the same target. In words: cryo-EM structure.

On to AcrIF24 (natural protein), for which the stoichiometry N in assay [1] and in assay [2] was 2 in each case.
